How the values were obtained:
[1] = target: T1, SARS-CoV-2 RBD WT (for SPR binding assays) (SARS-CoV-2, Wuhan-Hu-1 (WT), UniProt P0DTC2); assay: cell-based or functional assay
[2] = target: T1, SARS-CoV-2 RBD WT (for SPR binding …); assay: SPR

Row | Binder | IC50, neutralisation of authentic SARS-CoV-2 (SARS-CoV-2-Nluc) on Vero E6 cells [1] | IC90, neutralisation of authentic SARS-CoV-2 (SARS-CoV-2-Nluc) on Vero E6 cells [1] | Kd [2]
1 | S2H97 IgG1 (antibody, V domains shown) VH: QVRLVQSGAEVKKSGESLKISCKGSGYSFTSYWIGWVRQMPGKGLEWMGIIYPGDSDTRYSPSFQGQVTISADKSISTVYLQWSSLKASDTAMYYCARQWSHYTYDYYYWGQGTLVTISS VL: QSVLTQPASVSGSPGQSITISCTGISSDVGGYNSVSWYQQHPGKAPKLMIYDVTNRPSGVSNRFSGSKSGNTASLTISGLQAEDEADYYCSSYTSSSTPPYVFGTGTKVSVL | 749 ng/mL | 3290 ng/mL | 0.04 nM
2 | S2H97 Fab (Fab, V domains shown) VH: QVRLVQSGAEVKKSGESLKISCKGSGYSFTSYWIGWVRQMPGKGLEWMGIIYPGDSDTRYSPSFQGQVTISADKSISTVYLQWSSLKASDTAMYYCARQWSHYTYDYYYWGQGTLVTISS VL: QSVLTQPASVSGSPGQSITISCTGISSDVGGYNSVSWYQQHPGKAPKLMIYDVTNRPSGVSNRFSGSKSGNTASLTISGLQAEDEADYYCSSYTSSSTPPYVFGTGTKVSVL |  |  | 0.04 nM
3 | S304 IgG1 (antibody, V domains shown) VH: EVQLVESGGGLVQPGGSLRLSCAASGFTFSSYDMHWVRQTTGKGLEWVSTIGTAGDTYYPDSVKGRFTISREDAKNSLYLQMNSLRAGDTAVYYCARGDSSGYYYYFDYWGQGTLLTVSS VL: DIQMTQSPSSLSAAVGDRVTITCRASQSIGSYLNWYQQKPGKAPKLLIYAASSLQSGVPSRFSGSGSGTDFTLTISSLQPEDFAIYYCQQSYVSPTYTFGPGTKVDIK | 14400 ng/mL |  | 0.4 nM
4 | S304 Fab (Fab, V domains shown) VH: EVQLVESGGGLVQPGGSLRLSCAASGFTFSSYDMHWVRQTTGKGLEWVSTIGTAGDTYYPDSVKGRFTISREDAKNSLYLQMNSLRAGDTAVYYCARGDSSGYYYYFDYWGQGTLLTVSS VL: DIQMTQSPSSLSAAVGDRVTITCRASQSIGSYLNWYQQKPGKAPKLLIYAASSLQSGVPSRFSGSGSGTDFTLTISSLQPEDFAIYYCQQSYVSPTYTFGPGTKVDIK |  |  | 1 nM
5 | S2X35 IgG1 (antibody, V domains shown) VH: QVQLVQSGAEVKKPGASVKVSCKASGYTFTNYGISWVRQAPGQGLEWMGWISAYKGNTNYAQKLQGRVTMTTDTSTSTAYMELRSLRSDDTAVYYCARPDYQVLGYDFWIGYYGMDVWGQGTTVIVSS VL: QSVLTQPPSVSGAPGQRVTISCTGSSSNIGAGYDVHWYQQLPGTAPKLLIYGNTNRPSGVPDRFSGSKSGTSASLAITGLQAEDEADYYCQSYDSSLSGSEVVFGGGTKLTVL | 179 ng/mL | 592 ng/mL | 0.06 nM
6 | S2X35 Fab (Fab, V domains shown) VH: QVQLVQSGAEVKKPGASVKVSCKASGYTFTNYGISWVRQAPGQGLEWMGWISAYKGNTNYAQKLQGRVTMTTDTSTSTAYMELRSLRSDDTAVYYCARPDYQVLGYDFWIGYYGMDVWGQGTTVIVSS VL: QSVLTQPPSVSGAPGQRVTISCTGSSSNIGAGYDVHWYQQLPGTAPKLLIYGNTNRPSGVPDRFSGSKSGTSASLAITGLQAEDEADYYCQSYDSSLSGSEVVFGGGTKLTVL |  |  | 0.2 nM
7 | S2D106 IgG1 (antibody, V domains shown) VH: EVQLVQSGAEVKKPGSSVKVSCKASGGPFSSSAISWVRQAPGQGLEWMGGIIPMVGTANYAQKFQGRVTITADESTSTAYMELSSLRSEDTAVYYCARDSRYCSGGSCYSVWFDPWGQGTLVTVSS VL: not shown | 6.8 ng/mL | 23.6 ng/mL | 0.04 nM
8 | S2D106 Fab (Fab, V domains shown) VH: EVQLVQSGAEVKKPGSSVKVSCKASGGPFSSSAISWVRQAPGQGLEWMGGIIPMVGTANYAQKFQGRVTITADESTSTAYMELSSLRSEDTAVYYCARDSRYCSGGSCYSVWFDPWGQGTLVTVSS VL: not shown |  |  | 0.05 nM
9 | S2E12 IgG1 (antibody, V domains shown) VH: not shown VL: DIVLTQTPGTLSLSPGERATLSCRASQSVSSSYLAWYQQKPGQAPRLLIYGASSRATGIPDRFSGSGSGTDFTLTISRLEPEDFAVYYCQQYVGLTGWTFGQGTKVEIK | 4.5 ng/mL | 14 ng/mL | 0.7 nM
10 | S2E12 Fab (Fab, V domains shown) VH: not shown VL: DIVLTQTPGTLSLSPGERATLSCRASQSVSSSYLAWYQQKPGQAPRLLIYGASSRATGIPDRFSGSGSGTDFTLTISRLEPEDFAVYYCQQYVGLTGWTFGQGTKVEIK |  |  | 1.7 nM

Reference: PMC9282883 (Nature, 2021)
